According to patent US20090325168:

How the values were obtained:
[1] = target: T1, Fm-CGD2D, Fm-K[F1]DBJGDEVDGIDGJPK[F1]GY (compound 11 of Table 12)
T1 chain: KDXXGDEVDGIDGXPKGY

[2] = target: T2, Fm-G2D2D, Fm-K[F1]DBGDEVDGIDGPK[F1]GY (compound 10 of Table 12)
T2 chain: KDXGDEVDGIDGPKGY

B1: CPP32 protease (protein)
chain: SGISLDNSYKMDYPEMGLCIIINNKNFHKSTGMTSRSGTDVDAANLRETFRNLKYEVRNKNDLTREEIVELMRDVSKEDHSKRSSFVCVLLSHGEEGIIFGTNGPVDLKKITNFFRGDRCRSLTGKPKLFIIQACRGTELDCGIETDSGVDDDMACHKIPVEADFLYAYSTAPGYYSWRNSKDGSWFIQSLCAMLKQYADKLEFMHILTRVNRKVATEFESFSFDATFHAKKQIPCIVSMLTKELYFYH
B1 was tested, and the “hydrolysis rate, fold increase over compound 10 (Fm-G2D2D)” value [1] was “the hydrolysis rate was further increased by ca. 3-fold over the above glycine residue insertion”, the “substrate hydrolysis rate, fold increase over compound 4 (Fm-DEVD)” value [1] was “overall at least a 9-fold increase in substrate hydrolysis rate was accomplished (compounds 4 and 11, Table 12)” and the “hydrolysis rate, fold increase over compound 4 (Fm-DEVD)” value [2] was “The hydrolysis rate was increased by 3-fold between compounds 4 ... and 10”.
